{"source": "paper PMC9023295", "about": "“NMR-derived secondary structure of the full-length Ox40 mRNA 3′UTR and its multivalent binding to the immunoregulatory RBP Roquin” (Nucleic Acids Research, 2022)", "key": {"[1]": {"molecular_target": "T1, Roquin-1 extROQ (mouse, UniProt Q4VGL6 89-404)", "T1 sequence": "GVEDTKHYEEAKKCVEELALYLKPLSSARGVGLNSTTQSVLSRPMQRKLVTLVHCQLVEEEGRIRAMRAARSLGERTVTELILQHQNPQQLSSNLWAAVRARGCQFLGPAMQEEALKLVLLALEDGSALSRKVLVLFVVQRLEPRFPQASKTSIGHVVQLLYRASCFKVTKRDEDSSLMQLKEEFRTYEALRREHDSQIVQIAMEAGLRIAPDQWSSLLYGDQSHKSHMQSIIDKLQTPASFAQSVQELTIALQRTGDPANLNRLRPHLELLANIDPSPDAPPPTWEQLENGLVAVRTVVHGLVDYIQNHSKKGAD", "test": "EMSA", "settings": "EMSA: 150 mM NaCl, 20 mM Tris pH 7.0, 2 mM TCEP, 1 mM MgCl2, 0.6 ug yeast tRNAPhe per 20 ul, 15 min, temperature not stated, gel in 1x TB"}, "[2]": {"molecular_target": "T2, Roquin-1 coreROQ (mouse, UniProt Q4VGL6 171-326)", "T2 sequence": "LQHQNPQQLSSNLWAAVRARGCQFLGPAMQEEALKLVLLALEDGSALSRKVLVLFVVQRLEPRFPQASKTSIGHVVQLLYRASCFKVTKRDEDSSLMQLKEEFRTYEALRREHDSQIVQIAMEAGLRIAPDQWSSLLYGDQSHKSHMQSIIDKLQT", "test": "EMSA", "settings": "EMSA: 150 mM NaCl, 20 mM Tris pH 7.0, 2 mM TCEP, 1 mM MgCl2, 0.6 ug yeast tRNAPhe per 20 ul, 15 min, temperature not stated, gel in 1x TB"}, "[3]": {"test_system": "Roquin-1 N-term A-site mutant (Amut) (mouse)", "test": "EMSA", "settings": "EMSA: 150 mM NaCl, 20 mM Tris pH 7.0, 2 mM TCEP, 1 mM MgCl2, 0.6 ug yeast tRNAPhe per 20 ul, 15 min; temperature not stated; gel in 1x TB"}, "[4]": {"test_system": "Roquin-1 N-term (mouse)", "test": "EMSA", "settings": "first binding event; EMSA: 150 mM NaCl, 20 mM Tris pH 7.0, 2 mM TCEP, 1 mM MgCl2, 0.6 ug yeast tRNAPhe per 20 ul, 15 min; temperature not stated; gel in 1x TB"}, "[5]": {"molecular_target": "the molecule itself", "test": "SAXS; protein alone, concentration series 50, 100, 200, 300 uM; 150 mM NaCl, 20 mM Tris pH 7.0, 2 mM TCEP; 293 K; molecular weight by the Bayesian approach; monomer to dimer"}, "[6]": {"molecular_target": "T1, Roquin-1 extROQ", "test": "EMSA; single binding event; EMSA: 150 mM NaCl, 20 mM Tris pH 7.0, 2 mM TCEP, 1 mM MgCl2, 0.6 ug yeast tRNAPhe per 20 ul, 15 min; temperature not stated; gel in 1x TB", "settings": "protein: recombinant, tags: tag removed by TEV, label: 5' 32P"}, "[7]": {"molecular_target": "T1, Roquin-1 extROQ", "test": "EMSA; triplicate; EMSA: 150 mM NaCl, 20 mM Tris pH 7.0, 2 mM TCEP, 1 mM MgCl2, 0.6 ug yeast tRNAPhe per 20 ul, 15 min; temperature not stated; gel in 1x TB", "settings": "protein: recombinant; tags: tag removed by TEV; label: 5' 32P (EMSA); hairpin, apical hexaloop"}, "[8]": {"molecular_target": "T2, Roquin-1 coreROQ", "test": "EMSA; triplicate; EMSA: 150 mM NaCl, 20 mM Tris pH 7.0, 2 mM TCEP, 1 mM MgCl2, 0.6 ug yeast tRNAPhe per 20 ul, 15 min; temperature not stated; gel in 1x TB", "settings": "protein: recombinant; tags: tag removed by TEV; label: 5' 32P (EMSA); hairpin, apical hexaloop"}, "[9]": {"molecular_target": "T1, Roquin-1 extROQ", "test": "EMSA; 2:1 stoichiometry; EMSA: 150 mM NaCl, 20 mM Tris pH 7.0, 2 mM TCEP, 1 mM MgCl2, 0.6 ug yeast tRNAPhe per 20 ul, 15 min; temperature not stated; gel in 1x TB", "settings": "protein: recombinant; tags: tag removed by TEV; label: 5' 32P (EMSA)"}, "[10]": {"molecular_target": "T1, Roquin-1 extROQ", "test": "EMSA; two-step, comparable to WT ADE-CDE; EMSA: 150 mM NaCl, 20 mM Tris pH 7.0, 2 mM TCEP, 1 mM MgCl2, 0.6 ug yeast tRNAPhe per 20 ul, 15 min; temperature not stated; gel in 1x TB", "settings": "protein: recombinant; tags: tag removed by TEV; label: 5' 32P; two hairpins"}}, "data": [{"molecule": "Ox40 CDE", "values": [{"measurement": "Kd", "setting": "[1]; triplicate", "value": 149, "unit": "nM"}, {"measurement": "Kd", "setting": "[2]; triplicate", "value": 460, "unit": "nM"}]}, {"molecule": "Ox40 tandem ADE-CDE", "values": [{"measurement": "Kd", "setting": "[3]", "value": 593, "unit": "nM"}, {"measurement": "Kd", "setting": "[1]; first binding event", "value": 59, "unit": "nM"}, {"measurement": "Kd", "setting": "[1]; second binding event", "value": 180, "unit": "nM"}, {"measurement": "Kd", "setting": "[2]; transitions not resolved", "value": 379, "unit": "nM"}, {"measurement": "Kd", "setting": "[4]", "value": 78, "unit": "nM"}]}, {"molecule": "Roquin-1 amino-terminal part (N-term, residues 1-454) (domain or fragment, murine, UniProt Q4VGL6 1-454, looked up, Roquin-1, murine, structured amino-terminal part with RING, ROQ and ZnF domains, residues 1-454 (theoretical MW 51.09 kDa); also called Roquin N-term; WT N-term; source: E. coli BL21 (DE3), expressed with 100 uM ZnCl2, purified (Ni-NTA, TEV cleavage, reverse Ni-NTA, SEC)) MPVQAPQWTDFLSCPICTQTFDETIRKPISLGCGHTVCKMCLNKLHRKACPFDQTTINTDIELLPVNSALLQLVGAQIPEQQPITLCSGVEDTKHYEEAKKCVEELALYLKPLSSARGVGLNSTTQSVLSRPMQRKLVTLVHCQLVEEEGRIRAMRAARSLGERTVTELILQHQNPQQLSSNLWAAVRARGCQFLGPAMQEEALKLVLLALEDGSALSRKVLVLFVVQRLEPRFPQASKTSIGHVVQLLYRASCFKVTKRDEDSSLMQLKEEFRTYEALRREHDSQIVQIAMEAGLRIAPDQWSSLLYGDQSHKSHMQSIIDKLQTPASFAQSVQELTIALQRTGDPANLNRLRPHLELLANIDPSPDAPPPTWEQLENGLVAVRTVVHGLVDYIQNHSKKGADQQQPPQHSKYKTYMCRDMKQRGGCPRGASCTFAHSQEELEKFRKMNKRLV", "values": [{"measurement": "binding result", "setting": "[5]", "value": "binds"}]}, {"molecule": "GUAUUUAUGAUUUCCUAUGUAUGCUAUGCAUACUAC (structured_RNA)", "note": "[extCDE]", "values": [{"measurement": "Kd", "setting": "[6]; 5' single strand plus hairpin", "value": "~50", "unit": "nM"}]}, {"molecule": "GCCUGCCAGUACCCUCCACACCGUUCUAGGUGCUGGGCUGGCUCUGGGC (structured_RNA)", "note": "[Ox40 ADE]", "values": [{"measurement": "Kd", "setting": "[7]", "value": "171 ± 17", "unit": "nM"}, {"measurement": "Kd", "setting": "[8]", "value": "232 ± 29", "unit": "nM"}]}, {"molecule": "Ox40 full-length 3'UTR (structured_RNA) RNA: GCAUUACUACAGGAGUGGAUUUUAUGGGGCACGGACAACCCAUAUCCUGAUGCCUGCCAGUACCCUCCACACCGUUCUAGGUGCUGGGCUGGCUCUGGGCUUUCCUAUGUAUGCUAUGCAUACUACCUGCCUGGUGGUGCUCCUAAUAAACAUGCUA", "values": [{"measurement": "Kd", "setting": "[9]", "value": "63 ± 9", "unit": "nM"}]}, {"molecule": "ADE-u-CDE (structured_RNA) RNA: GCCUGCCAGUACCCUCCACACCGUUCUAGGUGCUGGGCUGGCUCUGGGCUGUAUGCUAUGCAUACUAC", "values": [{"measurement": "binding result", "setting": "[10]", "value": "binds"}]}, {"molecule": "Bulge-CDE (structured_RNA) RNA: GGAUUUUAUGGGGCACGGACAACCCAUAUCCUGAUUUUCCUAUGUAUGCUAUGCAUACUAC", "values": [{"measurement": "Kd", "setting": "[6]", "value": "~70.7", "unit": "nM"}]}]}
